From patent US6403765B1, “Truncated Apaf-1 and methods of use thereof” (Thomas Jefferson University, priority 1998, dated 2002)

How the values were obtained:
[1] = target: T1, T7-tagged Apaf-530 (Homo sapiens, UniProt O14727); test: Co-immunoprecipitation of Flag-tagged Apaf-1 variants with T7-tagged Apaf-530 in 293 cells; format: binding; conditions: anti-Flag immunoprecipitation, anti-T7 blot, 36 hours, FIG. 11
T1 construct: expressed in transfected cells; host or cells: 293 cells
T1 sequence (O14727 1-530 isoform O14727-3): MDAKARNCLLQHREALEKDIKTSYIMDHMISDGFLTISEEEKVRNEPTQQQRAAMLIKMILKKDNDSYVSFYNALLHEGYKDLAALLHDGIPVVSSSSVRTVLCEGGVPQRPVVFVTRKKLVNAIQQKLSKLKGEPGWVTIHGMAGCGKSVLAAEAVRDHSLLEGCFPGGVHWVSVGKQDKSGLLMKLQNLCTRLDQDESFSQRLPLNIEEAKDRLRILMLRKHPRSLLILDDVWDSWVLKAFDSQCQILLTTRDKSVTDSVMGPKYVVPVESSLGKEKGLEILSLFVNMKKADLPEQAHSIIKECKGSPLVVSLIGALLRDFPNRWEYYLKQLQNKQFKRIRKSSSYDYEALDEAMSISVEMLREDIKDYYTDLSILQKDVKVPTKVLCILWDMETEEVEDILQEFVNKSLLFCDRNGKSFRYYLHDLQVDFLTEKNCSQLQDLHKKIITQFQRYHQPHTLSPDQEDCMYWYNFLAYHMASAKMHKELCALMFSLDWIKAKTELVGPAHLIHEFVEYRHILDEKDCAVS
Description: The ability of APAF-530 to oligomerize pro-caspase-9 was tested. Co-transfection experiments in 293 cells were performed with T7-tagged Apaf-530 and different Flag-tagged Apaf-1 variants, and cell lysates were prepared and immunoprecipitated with an anti-Flag antibody. The immunoprecipitates were analyzed by Western blotting with an anti-T7 antibody.
In FIG. 11, 293 cells were co-transfected with constructs encoding T7-tagged Apaf-530 and an empty vector (lane 1) or constructs encoding Flag-tagged Apaf-1 (lane 2), Flag-tagged Apaf-530 (lane 3), Flag-tagged Apaf-530ΔCARD (lane 4) or Flag-tagged Apaf-97 (lane 5). After 36 hours, extracts were prepared and immunoprecipitated with a monoclonal antibody to the Flag epitope. The immunoprecipitates (upper panel) were analyzed by SDS-PAGE and immunoblotted with a horseradish peroxides-conjugated T7 antibody. The corresponding cellular extracts were also analyzed by SDS-PAGE and immunoblotted with a horseradish peroxides-conjugated T7 antibody (middle panel) or an anti-Flag antibody (lower panel).

[2] = target: T2, procaspase-3 (Homo sapiens, UniProt P42574); test: Processing of procaspase-3 by Apaf-530-bound caspase-9; format: biochemical; conditions: Apaf-530 with non-radiolabeled WT procaspase-9, FIG. 15
T2 construct: made in house; host or cells: coupled in vitro transcription/translation in rabbit reticulocyte lysate (TNT Kit, Promega)
T2 sequence (P42574 1-277): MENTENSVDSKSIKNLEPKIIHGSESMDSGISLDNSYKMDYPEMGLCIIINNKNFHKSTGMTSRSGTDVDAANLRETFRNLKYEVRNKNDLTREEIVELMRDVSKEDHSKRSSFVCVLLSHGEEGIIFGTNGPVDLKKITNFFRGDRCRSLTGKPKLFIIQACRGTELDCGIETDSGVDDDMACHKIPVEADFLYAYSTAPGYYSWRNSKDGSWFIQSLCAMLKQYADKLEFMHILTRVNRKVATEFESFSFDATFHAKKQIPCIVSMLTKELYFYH
Description: (§1) To achieve this, a chimeric procaspase-3 with an N-terminal caspase-9 prodomain was constructed. Caspase-9 prodomain in the chimera may allow recruitment of the chimeric procaspase-3 to the Apaf-530-caspase-9 complex. […] In FIG. 15, ^35S-labeled chimeric procaspase-3 with an N-terminal procaspase-9 prodomain (lanes 1-4) or WT procaspase-3 (lanes 5-8) were incubated with buffer or Apaf-530 in the presence or absence of a non-radiolabeled WT procaspase-9 and analyzed by SDS-PAGE followed by autoradiography.

[3] = tested on: chimeric procaspase-3 with an N-terminal procaspase-9 prodomain; test: Processing of chimeric procaspase-3 by Apaf-530-bound caspase-9; format: biochemical; conditions: Apaf-530 in the absence of procaspase-9, FIG. 15
Description: as §1

[4] = target: T3, T7-tagged Bcl-xL (Homo sapiens, UniProt Q07817); test: Co-immunoprecipitation of Flag-tagged Apaf-1 variants or procaspase-9 with T7-tagged Bcl-xL in 293 cells; format: binding; conditions: anti-Flag immunoprecipitation, anti-T7 blot, 36 hours, FIG. 16
T3 construct: expressed in transfected cells; host or cells: 293 cells
Description: In vivo interaction experiments between Apaf-1 variants and Bcl-xL were performed. To analyze the ability of Apaf-1 to interact with Bcl-xL, 293 cells were co-transfected with constructs encoding T7-tagged Bcl-xL and constructs encoding Flag-tagged Apaf-97 (FIG. 16, lane 1), Apaf-1 (FIG. 16, lane 2), Apaf-530 (FIG. 16, lane 3) Apaf-530ΔCARD (FIG. 16, lane 4), or procaspase-9 C287A (FIG. 16, lane 5). After 36 hours, extracts were prepared and immunoprecipitated with a monoclonal antibody to the Flag epitope. The immunoprecipitates (FIG. 16, upper panel) were analyzed by SDS-PAGE and immunoblotted with a horseradish peroxidase-conjugated T7 antibody. The corresponding cellular extracts were also analyzed by SDS-PAGE and immunoblotted with a horseradish peroxides-conjugated T7 antibody (FIG. 16, middle panel) or an anti-Flag antibody (FIG. 16, lower panel).

T3 sequence (Q07817 whole entry): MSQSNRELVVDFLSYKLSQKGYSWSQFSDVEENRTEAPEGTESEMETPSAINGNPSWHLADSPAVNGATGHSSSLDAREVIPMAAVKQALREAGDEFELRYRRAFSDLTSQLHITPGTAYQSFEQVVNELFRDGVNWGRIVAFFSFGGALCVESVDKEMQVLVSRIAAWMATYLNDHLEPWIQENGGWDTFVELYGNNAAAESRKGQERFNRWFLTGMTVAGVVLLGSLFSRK

B1: Apaf-530: truncated Apaf-1 (residues 1-530) lacking its WD-40 repeats, recombinant (protein, UniProt O14727 1-530, looked up, fragment)
chain: MDAKARNCLLQHREALEKDIKTSYIMDHMISDGFLTISEEEKVRNEPTQQQRAAMLIKMILKKDNDSYVSFYNALLHEGYKDLAALLHDGIPVVSSSSGKDSVSGITSYVRTVLCEGGVPQRPVVFVTRKKLVNAIQQKLSKLKGEPGWVTIHGMAGCGKSVLAAEAVRDHSLLEGCFPGGVHWVSVGKQDKSGLLMKLQNLCTRLDQDESFSQRLPLNIEEAKDRLRILMLRKHPRSLLILDDVWDSWVLKAFDSQCQILLTTRDKSVTDSVMGPKYVVPVESSLGKEKGLEILSLFVNMKKADLPEQAHSIIKECKGSPLVVSLIGALLRDFPNRWEYYLKQLQNKQFKRIRKSSSYDYEALDEAMSISVEMLREDIKDYYTDLSILQKDVKVPTKVLCILWDMETEEVEDILQEFVNKSLLFCDRNGKSFRYYLHDLQVDFLTEKNCSQLQDLHKKIITQFQRYHQPHTLSPDQEDCMYWYNFLAYHMASAKMHKELCALMFSLDWIKAKTELVGPAHLIHEFVEYR
co-immunoprecipitation with T7-Apaf-530 [1]: co-immunoprecipitated | processing of WT procaspase-3 [2]: no processing of procaspase-3 was observed | processing of chimeric procaspase-3 [3]: no processing was observed | co-immunoprecipitation with Bcl-xL [4]: capable of immunoprecipitating Bcl-xL
